Experiment: soluble fraction after stress (log2 fold change); higher = more stays soluble; pooled small domains, quantitative proteomics
Conditions: stress: 50 degC
Summary of the method: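 Each library was heated to 50°C as a stress step. The libraries, made up of small protein domains, were pooled and analysed at high throughput by quantitative proteomics. The reported value is the base-two logarithm of the fold change in each protein's soluble amount after stress, taken as a measure of aggregation propensity. The higher the value, the more protein stays in solution.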

First: HMELPVNSIRVPDVVGLSLREAMQAMTDAGVPWQSVQAKGVGFVSRQSPEAGTVTQLRRVRLELKLF
Second: HMADGKWTLTDAGYTFTYSDGRKARGTWEDIDGEWYHFDRNGIMETGWKTVGNIRYHFNQDGSL
The “soluble fraction (log2)” value of the first is lower: -2.58 for the first, -0.185 for the second.

“HMIQTKNVTFTINEKTKIANIPLKSLKILSQEDNRITLSYEKNSLKIDEIISYFSDKNINILDITTD” and “HMEEILLSVKADGTYWVDQKEVTLDEVGALLDKEPDRLLNIFMDEKVPVRHFINVVDIAKVKREGRFII” are within 0.2 log units of each other in “soluble fraction (log2)” value: -0.451 for the first, -0.453 for the second.

First: HMVGIVQKTFEPTGIAAEELMKTLKSDKSLDFGNVQILATPKSSTSRQVVVVSGRANDVDRVMMVLSNLDS
Second: HMEEFGRRLKERMIDKNMTEAELAQKTELWSSILTSYLKGERFPGYYTLLRIAEALDVSIDFLLGLRDEPE
The “soluble fraction (log2)” value of the first is higher: -0.108 for the first, -1.54 for the second.

First: HMQMSDTGAIEAMVKEALDENPQAIEDFKNGKGKALGFLMGQVMKKSKGQANGGIVNKLIKEELQKRIG
Second: HMEFEKYKYHYIFDDVLGLRIVWDRGKEHFSYFVNEELAEKSRKSDKDALEVMFYLEHKRWPEEGELENY
The “soluble fraction (log2)” value of the first is higher: 0.181 for the first, -0.687 for the second.

Compared with “HMARLEELSNGSIVEGLLSGEAVTVVSTKWYGSSSMEVFYKTNRGSTGSQILYREDEPSLTVLEKS”, “HMEKLLTTRQSQIFELAKRKGYWNIPREISITQLAQLTGSSKSTISVMLHAIESKIVDTFYDEI” is lower in “soluble fraction (log2)” value: -0.32 for the first, -3.2 for the second.

Compared with “HMSIGLEDLIEQKGVADTDLRPSGWINVGNQRIFVVTEGSYIDQNDNVIILSVDGNRVVVRKI”, “HMGTGVEQGKQYRTLKRDFDGASGIKVNGDFYRLRTSDTGMTELPAGTEVTFERFDGTTAVVHT” is higher in “soluble fraction (log2)” value: -0.747 for the first, -0.0841 for the second.

Compared with “HMKTELAYDFHSRIRDARIREGLSQVDLAKRMNEKIAVIQKAENGIRPTDSLIAKFSKALSVELYVE”, “HMEWTDHLAEELRSLAVEGEHLEIIANKLGISPGSARAKLVNLNIYNDYQLAHIERLEADTLQAK” is higher in “soluble fraction (log2)” value: -1.26 for the first, -0.318 for the second.

Compared with “HMKLSDDIIVDTIKEIIEENKNMIEQRKMGAMGPLMGKAMAKFKGKADGQTVSNVIKDEILNIIN”, “HMNPTTDFFKLEGIDATRILVFDQVGRQVAQFSQPAQQMDIQALPAGVYALRIENADGQVYSARIVK” is lower in “soluble fraction (log2)” value: 0.154 for the first, -0.16 for the second.

First: HMYAEVTITIEKGMTSDSVSKLLYKAGIVDDAKEFNNYIIKAGKSTKILIGEFTIQKGASYDDIIKIIA
Second: HMFKINQKVKLIAPLPYLKTSENMPMLRPPDLVAIDEIGEVLSLKSPETVEVRFRRGSFLIDIDKLEKVD
The “soluble fraction (log2)” value of the first is lower: -1.37 for the first, -0.219 for the second.

Going from “HMATQMSSARRGIATDEMKQVAKDEDVTLDWLLPKIAIGSIIIPSNNVRPQKIHNVGIGKGMKTKVN” to “HMYVEVPNFIGVPLVKVQSELASLGLVFNKSVVYQTSPYLKGNILDQRPLPGEVVPLNTEMSFTVSSGPA”, the “soluble fraction (log2)” value rises from 0.116 to 0.453.

Going from “HMRDQAIDIYKTVHSVAEPYKEVFLLRVLGELSFKEISHIFGKSESWAKVTFFRAKIKVVEKREES” to “HMEFEYTVVVPETRGKTIGEAGRILLDLELKYTSESMNIREDSKVIDQFPSPGTEVSKGSIIDLYLDE”, the “soluble fraction (log2)” value rises from -3.74 to 0.0563.

“HMAVGTASNLIGKDIEAYAPIDGSQSSDDTKTISGKVESVHIKDGVVYMNVKDSQSENIIEVEYGALIKVN” and “HMDYQEVEFEKLGKEILTKILLDINKKATKKTLKILIDGFNYDSYRSFYIAIGKAQISSDSILELLQH” are within 0.2 log units of each other in “soluble fraction (log2)” value: -0.498 for the first, -0.622 for the second.

Going from “HMPKITTIHIDPEKISKVIGPGGKTVKKIIEETGAKIDIEDTGKIFIAAVNTEAANKAIDMINGIVA” to “HMHLTEAPLIKITYFEADQKKSGGQYITIINHLKKINEYENLLVLENGVKINIDDIYELESV”, the “soluble fraction (log2)” value falls from 0.103 to -0.132.

First: HMKMNRELNQRQIKMLDYLSVNPKTTRKQYTKMMGISFMTSYRDIQELIDKAYIISKGQGRGTYYILAN
Second: HMTVMTGSQRRKKILELMRDAKEPLSGGALGKETGVSRHVVVQDIALLRTQGYPIVATARGYIINE
The “soluble fraction (log2)” value of the first is lower: -0.569 for the first, -0.212 for the second.

Going from “HMNKLIIDAAEDKIFFMIMNNDISYNISHENTKINFEKLIILINDFLSSKKLKINDITGLYV” to “HMNPEAFIQTLKQILSTYEKNDPIYLQEIKADLVKKFRIEIPINALETYLKENGYSNIYLKR”, the “soluble fraction (log2)” value falls from 0.067 to -0.133.

“HMSQAVEISSVKTQIDGKSYYLHTIKQGQTLYGISKAYGVSVEELTTVNPETSKGLKVGQIIKVPDTKT” and “HMSSKSLAALSPQEYRLLPLVAEGKTNKEIASALALSDKTVKNYLANIFSKLGITRRTQAATLYARAL” are within 0.2 log units of each other in “soluble fraction (log2)” value: 0.0299 for the first, -0.167 for the second.

Compared with “HMPYFLKQSNTRSKGLYLQIYHSFYVPGKGSRNKSYKAIGYVSELIKNGIEDPITYAKNLVDELNNNSSTP”, “HMSDRQLKRQANILYTTRKLASKVGYDGLTMRGLAEASEVSPKTLYNLFSSKDELLAAALEDLVGIV” is higher in “soluble fraction (log2)” value: -3.75 for the first, 0.282 for the second.

Going from “HMTQSPLHWSHRPIDLSELLTYLDRDGAFVYASGHKAPFTEVVRGFEHLLNIRLGDPRDVKRSVLQR” to “HMPAPMISIQLNGEPRNVQPGISIAALVREIGLEPAKVAVERNREIVPRSTLGDVLIEAGDQLEIVHFVG”, the “soluble fraction (log2)” value rises from -0.369 to 0.159.

“HMLIADADSLRKQIETVLANAPNEVAAYRGGKETLMGWFVGQIMRATGGKADPKLTREILAELLQ” and “HMDRDPAEAGYDDGYLSGNTDGMNNDERATYDESSQYPTPDERQSYAAAYRRGYAAGFADGRKQAV” are within 0.2 log units of each other in “soluble fraction (log2)” value: 0.00102 for the first, 0.134 for the second.

Going from “HMAATSTGFPGVEVRGNSIRVFFMYKRDRHAHTLPLEPTRNNIKHADQLRSAALFALRNGTYNEADFFPHS” to “HMKGSYTVKSGDNLWSIARKFYGGSGSTWTKIYSANKSTIESTARRYGRSSSDNGHWIYPGTVLVIP”, the “soluble fraction (log2)” value rises from -1.53 to 0.0541.

“HMGSKEQELVILNNILERQLQAINLQKSAAGPMVNLRNVHNTLTKLVEAAGLKNVETYFTDPVIGAAQ” and “HMTQEFIVPKVTGYTVEDAMNLSGVKDVFEITVDSTEKSDQPAGIILFQDPKDGSSRKSDLVIHVVVSAGS” are within 0.2 log units of each other in “soluble fraction (log2)” value: 0.0108 for the first, -0.137 for the second.

Going from “HMKRDRLYGITIYLLNHGRTSAKTLAEYFEVSVRTIQRDMDALSMAKIPIIAYPGSDGGYEIQEGYRL” to “HMLEQISDPEVLSKLADEVLSQQEKMVMDYRKGKTAAFQGLMGQMMKKTKGKGNPAKIQEILAQKL”, the “soluble fraction (log2)” value rises from -3.1 to 0.193.

Going from “HMDDPLSQLTPREREVLELMASGASNQGIADALVITVRAVEKYVSSIFGKLGLPSTGSESRRVLAVLTFLR” to “HMQPIAVHIGTENPMKSLSDLSVVRAQFTSGGRVIGSVAVLGPTRMQYSRIVGMMRFMQQRLDLLLKG”, the “soluble fraction (log2)” value rises from -0.635 to 0.0586.

Going from “HMRRPTYPTVTTEAGMVVEDRSSGFVGDIVRWSFEGVTLRDRQQQLRHFTWKPGGFLINGTPVTLKRPE” to “HMFNKTKVPNFIDMNYYEEIEGNSEYDKFNFADPITKNDDTKAPGTVIDQTPEKGTRIDEEKTVIQLTIA”, the “soluble fraction (log2)” value rises from -0.629 to -0.102.

First: HMTSRLLTPRQRYVFDTAMKEGFYDVPRRITLTELASVLDVAKSTLSAQLHRIESTVHHAYADDIRRRS
Second: HMQKWILVNKQGRLSGILDHRAFNTRESATAWFQRTSDISGGTIKIDDYYYVLKNEEYKLLKE
The “soluble fraction (log2)” value of the first is higher: -2.35 for the first, -3.15 for the second.

“HMGLNLIGLKRSGFAPEEVKAMTRAYMYIFKSAEGNFESRLAKAHEKYKDDALIMEMVEFIDDALKG” and “HMAADDGSARAEQLREMYSLISGLDKLDKAIILMWLDERSYDEIAEVTGFTRNNVATRLHRIKSRLARQSN” are within 0.2 log units of each other in “soluble fraction (log2)” value: -0.906 for the first, -0.783 for the second.

“HMVKPQANTIYKEYIKYRANLQNKNEFLSFSEYAKQKHNLEQMSEIMVDANLKEEMLETLKEMS” and “HMHQGTIEVGSIVHIEGQKALGTILSLTQREAIVGLGALKTTIPLKRLHLATEAEARRHKKSVTPQEAV” are within 0.2 log units of each other in “soluble fraction (log2)” value: 0.0362 for the first, 0.0611 for the second.

Going from “HMTPVYLNARQKQILAFLKREEPAKVGDIAHALKTISINTLKKDLLYLRQKNLIESHGVLKGTIYTVK” to “HMRTQEELVAEVREQMEAMGTIATLYVELYESSEERLVGGVIFEDERHYRFVYEDGLLHYEEEK”, the “soluble fraction (log2)” value rises from -1.41 to -0.206.

“HMPGRVITVMVNGKRVDLPFREEPYIFVDLFRYMDFDVERARGRIQLAINGKKAGYTDIIREGDSIEI” and “HMPGTAAQARQLKAWLKENGEKPGAALPALQKAQEIYGYVPREVQQLIADALHKPLTEIYGVSTFYSQFNL” are within 0.2 log units of each other in “soluble fraction (log2)” value: -0.562 for the first, -0.573 for the second.

Compared with “HMIIIPKKDYDVSQLDNLVSWLKDRGLEVHISRGENLTVIGLIGDTSKIDIDLIRSLDVVEEVKRIQ”, “HMDGEITLYKVVGYIKASDFDDKKNGFVIADDYITKRQAEDTMYEWKRKKTYPYLEIKEYKGKDPYK” is higher in “soluble fraction (log2)” value: -0.326 for the first, 0.295 for the second.

First: HMEQIGSIIKDIRKKNNLTQNEFASILGVTFQAVSKWENDKSIPDITILKDISNKFNVDLNYLISG
Second: HMVAGHLSEKKGYYYAVLNYKDYTGKRKSKWVSTGLPVKGNKRRAEKILADIKRDFVPEEPKR
The “soluble fraction (log2)” value of the first is higher: -0.0472 for the first, -0.596 for the second.

First: HMVDYSMEDSVWNNKKEHVNEWFDANPEHEGRRVIVDGLFAIGDAQPDLRKRHWSSISVVFADLDNSPIG
Second: HMEAVIGGIYRHYKGNNYKLLAVATHSETLEKMAVYQALYGEMGIWVRPLAMFMETIEKDGQSLKRFE
The “soluble fraction (log2)” value of the first is higher: -0.356 for the first, -1.78 for the second.

“HMSLEDNEVIQRMKVILDRFDEETAVDRTTAFKAVLDHIGKMDAESKTLEHMAEMLEALLDKVLEE” and “HMEISAIIGNNLQQLRKEQGLSLDQLALKTGVSKAVLSQLENGKANPTINTIWKIATALHVTYSALLEPP” are within 0.2 log units of each other in “soluble fraction (log2)” value: -0.237 for the first, -0.391 for the second.

Going from “HMDVKQSAAGVAGRIRFELNRTLTGQGHEKFTSASQAIGPRPAAELARRLFNSGSVVGVHVFANIVTVDLL” to “HMNNTIKFSVDTTNSGKRLDIFLAENIKQFTRSYLKKIISNNQVKLNNLVANSPSIKVKHSDLILINILE”, the “soluble fraction (log2)” value falls from -0.051 to -1.82.
